The assay has as its target CFF–Myc. In words: co-IP; Fig. 5D: HEK293T lysates co-expressing HA–TNPO1, CFF–Myc and GFP–Rab8-wt, GFP–Rab8-QL, GFP–Rab8-TN or GFP; anti-Myc immunoprecipitation; blotted for TNPO1 and GFP chimeras.

Chain of HA–TNPO1 (Q92973 whole entry): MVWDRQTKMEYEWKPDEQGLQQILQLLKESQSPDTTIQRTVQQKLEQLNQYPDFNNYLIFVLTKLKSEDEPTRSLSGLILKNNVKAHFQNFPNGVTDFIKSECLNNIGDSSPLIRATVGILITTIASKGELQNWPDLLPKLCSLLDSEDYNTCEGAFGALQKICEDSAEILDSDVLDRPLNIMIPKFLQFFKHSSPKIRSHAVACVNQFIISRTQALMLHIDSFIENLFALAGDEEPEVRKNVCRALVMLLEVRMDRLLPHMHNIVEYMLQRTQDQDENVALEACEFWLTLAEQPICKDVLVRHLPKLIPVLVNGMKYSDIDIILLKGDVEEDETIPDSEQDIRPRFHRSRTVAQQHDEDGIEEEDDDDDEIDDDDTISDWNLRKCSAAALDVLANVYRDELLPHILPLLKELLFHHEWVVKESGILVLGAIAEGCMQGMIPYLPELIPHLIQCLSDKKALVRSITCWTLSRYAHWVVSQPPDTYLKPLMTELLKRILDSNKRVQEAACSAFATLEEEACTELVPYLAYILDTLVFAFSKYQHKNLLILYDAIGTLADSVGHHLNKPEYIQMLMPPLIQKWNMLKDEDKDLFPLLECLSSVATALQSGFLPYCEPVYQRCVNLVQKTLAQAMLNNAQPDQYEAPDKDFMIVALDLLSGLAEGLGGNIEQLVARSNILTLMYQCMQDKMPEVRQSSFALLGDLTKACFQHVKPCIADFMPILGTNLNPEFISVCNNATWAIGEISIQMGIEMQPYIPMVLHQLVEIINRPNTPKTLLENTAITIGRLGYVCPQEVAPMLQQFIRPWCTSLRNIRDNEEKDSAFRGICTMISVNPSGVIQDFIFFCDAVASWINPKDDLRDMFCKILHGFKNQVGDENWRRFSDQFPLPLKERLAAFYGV

Take “HA–TNPO1 (from UniProt Q92973 1-898) (natural protein)”: the fold more TNPO1 co-immunoprecipitated with Rab8-TN co-expressed than with Rab8-QL or Rab8-wt worked out at 3 fold.

The record behind these values is PMC5087665.
